Reference: patent US20160311878A1 (SAMSUNG ELECTRONICS, published 2016)

Target: T1, full-length HDM2 (NP_002383.2) (human, UniProt Q00987-11 1-497, limits assumed)
T1 construct: it was coated on the ELISA plate at 20 ug/ml; also called full-length MDM2
Assay: ELISA; full-length HDM2 coated on plate, GST fusion at 0-5.5 uM, anti-GST-HRP detection (FIG. 4)
Procedure: The well was incubated overnight at 4° C. Thereafter, bindings between other proteins were blocked with 300 ul of 3% skim milk w/PBS-T (at room temperature for 3 hours).
One hour after, the plate was washed with 300 uL of PBS-T, and treated with 100 uL of HRP conjugated-anti-GST antibody (Abcam, 1:2000). After the reaction at room temperature for one hour, the plate was treated with TMB substrate (Pierce, 100 uL) and left for 5 minute until coloring reaction occur, and then, treated with stop solution (Pierce, 100 uL). Thereafter, absorbance at 450 nm was measured using microwell reader (Molecular Device, 340PC384).

T1 sequence (Q00987 other isoform, or with tags, fused parts or gaps limits assumed): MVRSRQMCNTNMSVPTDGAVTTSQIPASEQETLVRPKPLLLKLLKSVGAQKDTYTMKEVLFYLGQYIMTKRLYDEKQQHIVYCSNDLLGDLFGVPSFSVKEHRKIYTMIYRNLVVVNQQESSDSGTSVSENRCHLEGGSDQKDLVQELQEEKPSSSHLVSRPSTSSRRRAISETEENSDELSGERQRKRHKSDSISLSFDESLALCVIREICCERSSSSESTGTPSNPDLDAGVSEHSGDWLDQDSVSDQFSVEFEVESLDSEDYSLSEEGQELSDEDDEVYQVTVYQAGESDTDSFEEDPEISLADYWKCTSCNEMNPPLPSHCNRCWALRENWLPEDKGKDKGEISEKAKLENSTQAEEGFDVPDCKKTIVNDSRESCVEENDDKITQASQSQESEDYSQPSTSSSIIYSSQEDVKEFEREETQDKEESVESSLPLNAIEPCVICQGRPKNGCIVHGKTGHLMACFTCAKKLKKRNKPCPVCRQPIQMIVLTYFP

| Binder | binding result |
| --- | --- |
| GST-M11 (modified three-helix bundle protein M11, an a3D variant, fused to GST) (designed binder, Tested as a GST fusion in ELISA and detected with an HRP-conjugated anti-GST antibody; GST is placed at the N-terminus from the name GST-M11 and the pGEX vector; not shown: GST carrier (from the GST cds of pGEX-4T3, GE Healthcare) and the vector junction between GST and M11) MGSWAEFSQRLFAIYWRLLALGGSEAELAAFEKEIAAFESELQAYKGKGNPEVEALRKEAAAIRDELQAYRHN | binds |
| GST-M25 (modified three-helix bundle protein M25, an a3D variant, fused to GST) (designed binder, Tested as a GST fusion in ELISA and detected with an HRP-conjugated anti-GST antibody; GST is placed at the N-terminus from the name GST-M25 and the pGEX vector; not shown: GST carrier (from the GST cds of pGEX-4T3, GE Healthcare) and the vector junction between GST and M25) MGSWFEFAWRLLEIKTRLQALGGSEAELAAFEKEIAAFESELQAYKGKGNPEVEALRFEAYWIRLELQAYRHN | binds |
